Laboratory results reported in patent publication US8236925 (UNIVERSITY OF MINNESOTA, dated 2012).

Molecular target: the molecule itself

B1: E. coli dihydrofolate reductase (DHFR) (enzyme)
chain: MISLIAALAVDRVIGMENAMPWNLPADLAWFKRNTLNKPVIMGRHTWESIGRPLPGRKNIILSSQPGTDDRVTWVKSVDEAIAACGDVPEIMVIGGGRVYEQFLPKAQKLYLTHIDAEVEGDTHFPDYEPDDWESVFSEFHDADAQNSHSYCFEILERR
  selectivity of dimerization for E. coli DHFR relative to mouse DHFR: > 1e+07
  ΔG of favorable protein-protein interactions: ≥ -3.1 kcal/mol
